These results are taken from the supplement of paper PMC11316812.

In one data set the test system is MCF7. The experiment in a line: percentage of EdU-negative (G0-arrested) nuclei per well, 72 h; higher = more G0 arrest. The settings on record: reference: sequence is the full UniProt precursor, the tested protein was the secreted form or ectodomain.
In another data set the test system is hTERT-HMEC. The data set is described as above. The settings on record: reference: sequence is the full UniProt precursor, the tested protein was the secreted form or ectodomain.
Setting [1] is: protein concentration 0.01975 µM.
Where [2] appears, read: protein concentration 0.1975 µM.
Where [3] appears, read: protein concentration 0.0289325 µM.
[4] abbreviates: protein concentration 0.289325 µM.
Where [5] appears, read: protein concentration 0.0225 µM.
[6] abbreviates: protein concentration 0.03125 µM.
Where [7] appears, read: protein concentration 0.3125 µM.
The mark [8] stands for this setting: protein concentration 0.0357143 µM.
The mark [9] stands for this setting: protein concentration 0.357143 µM.

± gives the standard deviation of the averaged measurements.
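Also: secreted proteins added to cultured cells, EdU pulse at the end, nuclei found by Hoechst imaging, EdU status from nuclear versus surrounding ring intensity ratio, PBS as neutral control.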

On to “MGPLMVLFCLLFLYPGLADSAPSCPQNVNISGGTFTLSHGWAPGSLLTYSCPQGLYPSPASRLCKSSGQWQTPGATRSLSKAVCKPVRCPAPVSFENGIYTPRLGSYPVGGNVSFECEDGFILRGSPVRQCRPNGMWDGETAVCDNGAGHCPNPGISLGAVRTGFRFGHGDKVRYRCSSNLVLTGSSERECQGNGVWSGTEPICRQPYSYDFPEDVAPALGTSFSHMLGATNPTQKTKESLGRKIQIQRSGHLNLYLLLDCSQSVSENDFLIFKESASLMVDRIFSFEINVSVAIITFASEPKVLMSVLNDNSRDMTEVISSLENANYKDHENGTGTNTYAALNSVYLMMNNQMRLLGMETMAWQEIRHAIILLTDGKSNMGGSPKTAVDHIREILNINQKRNDYLDIYAIGVGKLDVDWRELNELGSKKDGERHAFILQDTKALHQVFEHMLDVSKLTDTICGVGNMSANASDQERTPWHVTIKPKSQETCRGALISDQWVLTAAHCFRDGNDHSLWRVNVGDPKSQWGKEFLIEKAVISPGFDVFAKKNQGILEFYGDDIALLKLAQKVKMSTHARPICLPCTMEANLALRRPQGSTCRDHENELLNKQSVPAHFVALNGSKLNINLKMGVEWTSCAEVVSQEKTMFPNLTDVREVVTDQFLCSGTQEDESPCKGESGGAVFLERRFRFFQVGLVSWGLYNPCLGSADKNSRKRAPRSKVPPPRDFHINLFRMQPWLRQHLGDVLNFLPL”, for which the “percentage of EdU-negative” value in the data set on MCF7 (setting [1]) stood at 27.3 ± 1.1%; in the data set with MCF7 (setting [2]), 27.9 ± 2%; in the data set with hTERT-HMEC (setting [1]), 5.66 ± 0.4%; in the data set on hTERT-HMEC (setting [2]) it was 16.21 ± 0.11%.

With “MGPLPAPSCTQRITWKGLLLTASLLNFWNPPTTAEVTIEAQPPKVSEGKDVLLLVHNLPQNLPGYFWYKGEMTDLYHYIISYIVDGKIIIYGPAYSGRETVYSNASLLIQNVTRKDAGTYTLHIIKRGDETREEIRHFTFTLYLETPKPYISSSNLNPREAMEAVRLICDPETLDASYLWWMNGQSLPVTHRLQLSKTNRTLYLFGVTKYIAGPYECEIRNPVSASRSDPVTLNLLPKLPIPYITINNLNPRENKDVLAFTCEPKSENYTYIWWLNGQSLPVSPGVKRPIENRILILPSVTRNETGPYQCEIRDRYGGLRSNPVILNVLYGPDLPRIYPSFTYYRSGENLDLSCFTESNPPAEYFWTINGKFQQSGQKLFIPQITRNHSGLYACSVHNSATGKEISKSMTVKVSGPCHGDLTESQS”, the “percentage of EdU-negative” value in the data set with MCF7 (setting [3]) came out at 25.2 ± 0.61%; with MCF7 (setting [4]) it was 26.3 ± 0.9%; in the data set on hTERT-HMEC (setting [3]) it was 4.85 ± 0.41%; in the data set with hTERT-HMEC (setting [4]) it was 4.97 ± 0.19%.

For the sequence “MGPLPVCLPIMLLLLLPSLLLLLLLPGPGSGEASRILRVHRRGILELAGTVGCVGPRTPIAYMKYGCFCGLGGHGQPRDAIDWCCHGHDCCYTRAEEAGCSPKTERYSWQCVNQSVLCGPAENKCQELLCKCDQEIANCLAQTEYNLKYLFYPQFLCEPDSPKCD”, the “percentage of EdU-negative” value with MCF7 (setting [5]) is 29.3 ± 2.5%; in the data set on MCF7 (protein concentration 0.225 µM) it was 31.17 ± 0.13%; in the data set with hTERT-HMEC (setting [5]) it was 7.05 ± 0.95%; with hTERT-HMEC (protein concentration 0.225 µM), 10.3 ± 2.1%.

As to “MGPLSAPPCTEHIKWKGLLLTALLLNFWNLPTTAQVMIEAQPPKVSEGKDVLLLVHNLPQNLTGYIWYKGQIRDLYHYITSYVVDGQIIIYGPAYSGRETVYSNASLLIQNVTREDAGSYTLHIIKRGDGTRGVTGYFTFTLYLETPKPSISSSNLNPREAMETVILTCNPETPDASYLWWMNGQSLPMTHRMQLSETNRTLFLFGVTKYTAGPYECEIWNSGSASRSDPVTLNLLHGPDLPRIFPSVTSYYSGENLDLSCFANSNPPAQYSWTINGKFQLSGQKLFIPQITPKHNGLYACSARNSATGEESSTSLTIRVIAPPGLGTFAFNNPT [Q9UQ72]”, the “percentage of EdU-negative” value is 24.9 ± 4.1% in the data set on MCF7 (setting [6]), 26.7 ± 1.1% with MCF7 (setting [7]), 4.83 ± 0.7% in the data set on hTERT-HMEC (setting [6]) and 5.46 ± 1.1% in the data set with hTERT-HMEC (setting [7]).

As for “MGPLSAPPCTEHIKWKGLLVTASLLNFWNLPTTAQVTIEAQPPKVSEGKDVLLLVHNLPQNLTGYIWYKGQIRDLYHYITSYVVDGQIIIYGPAYSGRETAYSNASLLIQNVTREDAGSYTLHIIKRGDGTRGVTGYFTFTLYLETPKPSISSSNLNPREAMETVILTCDPETPDTSYQWWMNGQSLPMTHRFQLSETNRTLFLFGVTKYTAGPYECEIRNSGSASRSDPVTLNLLHGPDLPRIHPSYTNYRSGDNLYLSCFANSNPPAQYSWTINGKFQQSGQNLFIPQITTKHSGLYVCSVRNSATGEESSTSLTVKVSASTRIGLLPLLNPT”, the “percentage of EdU-negative” value with MCF7 (setting [8]) amounted to 24.9 ± 2.1%; in the data set on MCF7 (setting [9]), 25.4 ± 0.54%; with hTERT-HMEC (setting [8]), 4.65 ± 0.56%; with hTERT-HMEC (setting [9]), 5.32 ± 1.1%.

Regarding “MGPLSAPPCTQHITWKGLLLTASLLNFWNLPITAQVTIEALPPKVSEGKDVLLLVHNLPQNLAGYIWYKGQLMDLYHYITSYVVDGQINIYGPAYTGRETVYSNASLLIQNVTREDAGSYTLHIIKRGDRTRGVTGYFTFNLYLKLPKPYITINNSKPRENKDVLAFTCEPKSENYTYIWWLNGQSLPVSPRVKRPIENRILILPSVTRNETGPYECEIRDRDGGMRSDPVTLNVLYGPDLPSIYPSFTYYRSGENLYLSCFAESNPPAEYFWTINGKFQQSGQKLSIPQITTKHRGLYTCSVRNSATGKESSKSMTVEVSAPSGIGRLPLLNPI”, the “percentage of EdU-negative” value is 24.6 ± 2.5% in the data set on MCF7 (setting [6]), 26.86 ± 0.057% with MCF7 (setting [7]), 4.75 ± 0.52% in the data set with hTERT-HMEC (setting [6]) and 4.28 ± 0.12% with hTERT-HMEC (setting [7]).
